Key:
[1] = target: T1, PFV-Gag-NtD (amino terminal domain of Prototypic Foamy Virus Gag, residues 1-179) (Prototypic foamy virus (PFV), UniProt P14349 1-179); assay: AUC
T1 chain: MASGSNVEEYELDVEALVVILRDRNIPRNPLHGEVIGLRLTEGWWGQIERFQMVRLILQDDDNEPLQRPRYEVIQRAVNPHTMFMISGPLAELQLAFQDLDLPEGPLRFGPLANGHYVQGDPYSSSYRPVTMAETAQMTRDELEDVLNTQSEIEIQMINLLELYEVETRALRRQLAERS

[2] = target: T2, PFV-Gag-NtD (amino terminal domain of Prototypic Foamy Virus Gag, residues 1-179) (Prototypic foamy virus (PFV), UniProt P14349 1-179); assay: ITC; ITC-200; 1 mM Env peptide in the syringe injected into 50 µM PFV-Gag-NtD in the cell; 25 mM Na-phosphate pH 6.55, 100 mM NaCl, 0.5 mM TCEP; conditions: both partners purified
T2 construct: source: E. coli Rosetta 2 (DE3), purified (Ni-NTA, Superdex 200 SEC); not shown: His-tag, N-terminal, kept
T2 sequence: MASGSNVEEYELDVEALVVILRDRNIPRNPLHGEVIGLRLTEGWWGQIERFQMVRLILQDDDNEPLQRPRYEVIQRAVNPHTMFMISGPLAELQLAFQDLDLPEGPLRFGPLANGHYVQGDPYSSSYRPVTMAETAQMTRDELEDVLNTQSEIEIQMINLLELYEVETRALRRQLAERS

PFV-Gag-NtD N29Q = target: T3, PFV-Gag-NtD N29Q (Prototypic foamy virus (PFV), UniProt P14349 1-179, N29Q); assay: AUC; sedimentation velocity of 75 µM equimolar mixtures of Gag-NtD and Env peptide, absorbance at 280 nm; bound fraction from the integrated absorbance of the 3S species in C(S); conditions: both partners purified
T3 construct: Gag of Prototypic Foamy Virus, residues 1-179 (Gag-NtD) with N29Q
T3 sequence (looked up): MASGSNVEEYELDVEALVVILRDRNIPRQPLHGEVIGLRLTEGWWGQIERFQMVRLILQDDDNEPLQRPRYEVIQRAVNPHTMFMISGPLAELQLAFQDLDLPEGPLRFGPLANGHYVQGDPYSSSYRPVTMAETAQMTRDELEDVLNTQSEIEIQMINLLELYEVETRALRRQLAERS

PFV-Gag-NtD L17S = target: T4, PFV-Gag-NtD L17S (Prototypic foamy virus (PFV), UniProt P14349 1-179, L17S); assay: as above; conditions: both partners purified
T4 construct: Gag of Prototypic Foamy Virus, residues 1-179 (Gag-NtD) with L17S
T4 sequence (looked up): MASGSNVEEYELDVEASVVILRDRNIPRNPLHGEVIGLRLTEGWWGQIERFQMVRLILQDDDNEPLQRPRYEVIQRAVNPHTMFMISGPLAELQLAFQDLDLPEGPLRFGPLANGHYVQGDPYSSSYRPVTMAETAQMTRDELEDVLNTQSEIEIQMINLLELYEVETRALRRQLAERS

B1: PFV Env leader peptide residues 1-20 (peptide, UniProt P14351 1-20, looked up)
peptide: MAPPMTLQQWIIWKKMNKAH
notes: Envelope (Env) protein of Prototypic Foamy Virus, N-terminal leader peptide region, residues 1-20 (Met1 to His20); the text names M1, A2, P3, P4, M5, T6, L7, Q9, W10, W13, M16, A19, H20; also called Env_(1-20); Env(1-20); source: synthetic peptide, bought HPLC purified: Pepceuticals Ltd
With B1 the Kd [1] was 7.5 µM, the Ka [2] was 150000 M⁻¹ and the “stoichiometry N” value [2] was 1. For the same binder, the binding result (PFV-Gag-NtD N29Q) was “binds” and the “fold decrease of affinity against wt PFV-Gag-NtD” value (PFV-Gag-NtD L17S) was 2 fold.
